Experimental data reported in paper PMC7477632, “Aptamer-based surface-enhanced resonance Raman scattering assay on a paper fluidic platform for detection of cardiac troponin I”.

B1: primary cTnI aptamer (ssDNA)
DNA: TTTTTTCGTGCAGTACGCCAACCTTTCTCATGCGCTGCCCCTCTTA
modifications: 5'-biotin
B2: secondary cTnI aptamer (ssDNA)
DNA: CGCATGCCAAACGTTGCCTCATAGTTCCCTCCCCGTGTCC
modifications: 5'-amine-spacer 18-spacer 18

Tests used:
[1] = biological target: T1, cardiac troponin I (cTnI) (UniProt P19429 2-210); assay: sandwich SERRS lateral-flow assay; capture aptamer on test line; N2 on AuNP as detector; assay LOD 0.016 ng/ml; running buffer PBS with 0.25% Tween; sample pad pretreated with 0.05 M Tris pH 7.6, 0.15 M NaCl, 0.25% Triton X-100; assay temperature not stated; conditions: protein: commercial
[2] = biological target: T1, cardiac troponin I (cTnI); assay: sandwich SERRS lateral-flow assay; detector aptamer on AuNP; N1 on test line as capture; assay LOD 0.016 ng/ml; running buffer PBS with 0.25% Tween; sample pad pretreated with 0.05 M Tris pH 7.6, 0.15 M NaCl, 0.25% Triton X-100; assay temperature not stated; conditions: protein: commercial

T1 sequence (P19429 2-210): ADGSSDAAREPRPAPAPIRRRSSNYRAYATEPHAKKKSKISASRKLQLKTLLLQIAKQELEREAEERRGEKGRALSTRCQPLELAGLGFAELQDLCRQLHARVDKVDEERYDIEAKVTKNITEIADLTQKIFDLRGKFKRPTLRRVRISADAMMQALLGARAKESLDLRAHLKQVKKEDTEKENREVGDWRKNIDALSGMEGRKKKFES

Binder | binding result [1] | binding result [2]
B1 | binds | 
B2 |  | binds
